Drawing on patent US20240228596A1, this text covers IC50 ug/ml, pseudoneutralization assay for three substances.

This test has as its target SARS-COV-2 Wuhan WT Spike_del18 on VSV-delG pseudotyped particles (SARS-COV-2) (UniProt P0DTC2). The test can be described thus: cell-based or functional assay.

Take “pX-B001_GS-VHH72-h1-E1D-S56A_(G4S)6_VHH72-h1-E1D-S56A_His8”: the IC50 ug/ml, pseudoneutralization assay was 0.169 µg/mL. As for “pX-B002_GS-VHH72-h1-E1D-S56A_(G4S)_VHH72-h1-E1D-S56A_His8”, the IC50 ug/ml, pseudoneutralization assay was determined as 0.108 µg/mL. Next, “pX-B003_GS-VHH72-h1-E1D-S56A_(G4S)4_VHH72-h1-E1D-S56A_His8”: 0.361 µg/mL.
